B1: Upf1-SmBiT [S. cerevisiae] / Dbp2 [S. cerevisiae] (parent)
chain 1: MVGSGSHTPYDISNSPSDVNVQPATQLNSTLVEDDDVDNQLFEEAQVTETGFRSPSASDNSCAYCGIDSAKCVIKCNSCKKWFCNTKNGTSSSHIVNHLVLSHHNVVSLHPDSDLGDTVLECYNCGRKNVFLLGFVSAKSEAVVVLLCRIPCAQTKNANWDTDQWQPLIEDRQLLSWVAEQPTEEEKLKARLITPSQISKLEAKWRSNKDATINDIDAPEEQEAIPPLLLRYQDAYEYQRSYGPLIKLEADYDKQLKESQALEHISVSWSLALNNRHLASFTLSTFESNELKVAIGDEMILWYSGMQHPDWEGRGYIVRLPNSFQDTFTLELKPSKTPPPTHLTTGFTAEFIWKGTSYDRMQDALKKFAIDKKSISGYLYYKILGHQVVDISFDVPLPKEFSIPNFAQLNSSQSNAVSHVLQRPLSLIQGPPGTGKTVTSATIVYHLSKIHKDRILVCAPSNVAVDHLAAKLRDLGLKVVRLTAKSREDVESSVSNLALHNLVGRGAKGELKNLLKLKDEVGELSASDTKRFVKLVRKTEAEILNKADVVCCTCVGAGDKRLDTKFRTVLIDESTQASEPECLIPIVKGAKQVILVGDHQQLGPVILERKAADAGLKQSLFERLISLGHVPIRLEVQYRMNPYLSEFPSNMFYEGSLQNGVTIEQRTVPNSKFPWPIRGIPMMFWANYGREEISANGTSFLNRIEAMNCERIITKLFRDGVKPEQIGVITPYEGQRAYILQYMQMNGSLDKDLYIKVEVASVDAFQGREKDYIILSCVRANEQQAIGFLRDPRRLNVGLTRAKYGLVILGNPRSLARNTLWNHLLIHFREKGCLVEGTLDNLQLCTVQLVRPQPRKTERPMNAQFNVESEMGDFPKFQDFDAQSMVSFSGQIGDFGNAFVDNTELSSYINNEYWNFENFKSAFSQKQNRNEIDDRNLYQEEASHLNSNFARELQREEQKHELSKDFSNLGI
chain 2: MTYGGRDQQYNKTNYKSRGGDFRGGRNSDRNSYNDRPQGGNYRGGFGGRSNYNQPQELIKPNWDEELPKLPTFEKNFYVEHESVRDRSDSEIAQFRKENEMTISGHDIPKPITTFDEAGFPDYVLNEVKAEGFDKPTGIQCQGWPMALSGRDMVGIAATGSGKTLSYCLPGIVHINAQPLLAPGDGPIVLVLAPTRELAVQIQTECSKFGHSSRIRNTCVYGGVPKSQQIRDLSRGSEIVIATPGRLIDMLEIGKTNLKRVTYLVLDEADRMLDMGFEPQIRKIVDQIRPDRQTLMWSATWPKEVKQLAADYLNDPIQVQVGSLELSASHNITQIVEVVSDFEKRDRLNKYLETASQDNEYKTLIFASTKRMCDDITKYLREDGWPALAIHGDKDQRERDWVLQEFRNGRSPIMVATDVAARGIDVKGINYVINYDMPGNIEDYVHRIGRTGRAGATGTAISFFTEQNKGLGAKLISIMREANQNIPPELLKYDRRSYGGGHPRYGGGRGGRGGYGRRGGYGGGRGGYGGNRQRDGGWGNRGRSNY
B2: Upf1-SmBiT [S. cerevisiae] / Edc3 [S. cerevisiae] (parent)
chain 1: B1 chain 1
chain 2: MSQFVGFGVQVELKDGKLIQGKIAKATSKGLTLNDVQFGDGGKSQAFKVRASRLKDLKVLTVASQSGKRKQQRQQQQQNDYNQNRGEHIDWQDDDVSKIKQQEDFDFQRNLGMFNKKDVFAQLKQNDDILPENRLQGHNRKQTQLQQNNYQNDELVIPDAKKDSWNKISSRNEQSTHQSQPQQDAQDDLVLEDDEHEYDVDDIDDPKYLPITQSLNITHLIHSATNSPSINDKTKGTVINDKDQVLAKLGQMIISQSRSNSTSLPAANKQTTIRSKNTKQNIPMATPVQLLEMESITSEFFSINSAGLLENFAVNASFFLKQKLGGRARLRLQNSNPEPLVVILASDSNRSGAKALALGRHLCQTGHIRVITLFTCSQNELQDSMVKKQTDIYKKCGGKIVNSVSSLESAMETLNSPVEIVIDAMQGYDCTLSDLAGTSEVIESRIKSMISWCNKQRGSTKVWSLDIPNGFDAGSGMPDIFFSDRIEATGIICSGWPLIAINNLIANLPSLEDAVLIDIGIPQGAYSQRTSLRKFQNCDLFVTDGSLLLDL
B3: Upf1-SmBiT [S. cerevisiae] / Pat1 [S. cerevisiae] (parent)
chain 1: B1 chain 1
chain 2: MSFFGLENSGNARDGPLDFEESYKGYGEHELEENDYLNDETFGDNVQVGTDFDFGNPHSSGSSGNAIGGNGVGATARSYVAATAEGISGPRTDGTAAAGPLDLKPMESLWSTAPPPAMAPSPQSTMAPAPAPQQMAPLQPILSMQDLERQQRQMQQQFMNFHAMGHPQGLPQGPPQQQFPMQPASGQPGPSQFAPPPPPPGVNVNMNQMPMGPVQVPVQASPSPIGMSNTPSPGPVVGATKMPLQSGRRSKRDLSPEEQRRLQIRHAKVEKILKYSGLMTPRDKDFITRYQLSQIVTEDPYNEDFYFQVYKIIQRGGITSESNKGLIARAYLEHSGHRLGGRYKRTDIALQRMQSQVEKAVTVAKERPSKLKDQQAAAGNSSQDNKQANTVLGKISSTLNSKNPRRQLQIPRQQPSDPDALKDVTDSLTNVDLASSGSSSTGSSAAAVASKQRRRSSYAFNNGNGATNLNKSGGKKFILELIETVYEEILDLEANLRNGQQTDSTAMWEALHIDDSSYDVNPFISMLSFDKGIKIMPRIFNFLDKQQKLKILQKIFNELSHLQIIILSSYKTTPKPTLTQLKKVDLFQMIILKIIVSFLSNNSNFIEIMGLLLQLIRNNNVSFLTTSKIGLNLITILISRAALIKQDSSRSNILSSPEISTWNEIYDKLFTSLESKIQLIFPPREYNDHIMRLQNDKFMDEAYIWQFLASLALSGKLNHQRIIIDEVRDEIFATINEAETLQKKEKELSVLPQRSQELDTELKSIIYNKEKLYQDLNLFLNVMGLVYRDGEISELK

The variants in one test derive from B1. The experiment in a line: NanoBiT (ratiometric protein-fragment complementation assay in live yeast). The conditions noted are these: with Dbp2 [S. cerevisiae]; four experimental replicates; read off a plot.
With chain 1 C122S, the screen value was 2 log2.

In the next test the parent is B2. Described as above. The conditions noted are these: with Edc3 [S. cerevisiae]; four experimental replicates; read off a plot.
On to chain 1 C122S, for which the screen value is -2.8 log2.

The variants in a further test derive from B3. Described as above. The following applies: with Pat1 [S. cerevisiae]; four experimental replicates; read off a plot.
For the variant chain 1 C122S, the screen value is -1.6 log2.

Source of the values: PMC11573789.
